Test results as given in PMC2992810.
Like-named read-outs stand apart in the source and are kept apart here.

Assays:
[1] = target: MC2R-MRAP complex (HA-hMC2R co-expressed with mMRAP on CHO cells) (human | mouse) (UniProt Q01718); assay: radioligand binding
[2] = target: MC2R-MRAP2 complex (HA-hMC2R co-expressed with mMRAP2 on CHO cells) (human | mouse) (UniProt Q01718)
[3] = target: MC2R-MRAP complex (HA-hMC2R co-expressed with mMRAP on CHO cells) (human | mouse) (UniProt Q01718)
[4] = target: MC2R-MRAP complex (HA-hMC2R co-expressed with mMRAP on CHO cells) (human | mouse) (UniProt Q01718); remark: listed apart in the source
[5] = target: HA-hMC4R (human) (UniProt P32245); assay: radioligand binding
UniProt P32245, sequence (P32245 whole entry): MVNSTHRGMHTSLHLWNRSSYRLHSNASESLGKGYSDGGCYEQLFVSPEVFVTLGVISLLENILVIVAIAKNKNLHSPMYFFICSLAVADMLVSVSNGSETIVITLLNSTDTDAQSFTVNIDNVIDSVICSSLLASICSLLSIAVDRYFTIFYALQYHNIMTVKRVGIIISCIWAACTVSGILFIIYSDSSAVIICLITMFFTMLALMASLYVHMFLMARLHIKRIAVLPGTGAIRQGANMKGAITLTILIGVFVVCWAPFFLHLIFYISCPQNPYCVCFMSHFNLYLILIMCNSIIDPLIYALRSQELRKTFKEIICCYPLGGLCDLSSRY

[6] = target: HA-hMC4R (human) (UniProt P32245)
[7] = target: HA-hMC4R (human) (UniProt P32245); assay: radioligand binding; remark: listed apart in the source
[8] = target: HA-hMC4R (human) (UniProt P32245); assay: radioligand binding; remark: listed apart in the source

ACTH(1–39) (peptide)
IC50 [1]: 5.7 nM | EC50 of phosphorylation of ERK1 and ERK2 in serum-deprived HEK 293 cells (5 min) [2]: 68 nM | EC50 of phosphorylation of ERK1 and ERK2 in serum-deprived HEK 293 cells (5 min) [3]: 1.1 nM | EC50 of cAMP accumulation (LANCE assay, 20 min) in CHO cells [4]: 2.4 nM

NDP-α-MSH (peptide)
IC50 [5]: 0.19 nM | EC50 of the CRE-Luc cAMP reporter response in CHO cells containing MC4R alone [6]: 0.11 nM | EC50 of the CRE-Luc cAMP reporter response in CHO cells containing MC4R and MRAP [6]: 0.27 nM | IC50 [7]: 0.92 nM | IC50 [8]: 1.1 nM
